Blank lines part the entries; values can stand above or below the binder they belong to. Numbered stars: 1 amine (or outer) side, 2 acyl side, 3 side chain; on linkers, the order of the positions; unused ones are H or OH. Bridge positions count the residues as written; N and C are the ends. Side chains are listed from the residue outwards. Ends that are not written are not given here. * marks the point of attachment. C20 diacid = O=C(O)CCCCCCCCCCCCCCCCCCC(=O)*; γGlu = O=C(O)[C@H](CCC(=O)[*:2])N[*:1]; AEEA = NCCOCCOCC(=O)O
Assays:
[1] = molecular target: T1, rat calcitonin receptor (rat, UniProt P32214 25-516); experiment: IC50 on rat calcitonin receptor divided by IC50 on rat amylin receptor (SPA competition)
T1 construct: whole, on cells; membranes of transiently transfected BHK tk'ts 13 cells (Assay VIII); also called rCTR; rat calcitonin (a) receptor
T1 sequence (looked up): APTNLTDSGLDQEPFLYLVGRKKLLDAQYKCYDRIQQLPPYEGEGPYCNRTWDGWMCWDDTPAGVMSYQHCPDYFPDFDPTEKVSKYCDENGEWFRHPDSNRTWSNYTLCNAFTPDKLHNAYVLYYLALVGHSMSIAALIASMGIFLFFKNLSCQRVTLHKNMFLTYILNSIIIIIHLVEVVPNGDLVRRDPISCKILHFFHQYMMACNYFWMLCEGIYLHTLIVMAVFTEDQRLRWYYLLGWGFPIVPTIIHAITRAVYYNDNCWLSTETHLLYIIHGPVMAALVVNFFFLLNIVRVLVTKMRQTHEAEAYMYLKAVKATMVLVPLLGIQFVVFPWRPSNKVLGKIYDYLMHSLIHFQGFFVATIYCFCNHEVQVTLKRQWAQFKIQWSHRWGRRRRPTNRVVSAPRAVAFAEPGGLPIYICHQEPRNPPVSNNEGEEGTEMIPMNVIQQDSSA

[2] = molecular target: T2, human calcitonin receptor (human, UniProt P30988 25-474); experiment: IC50 on human calcitonin receptor divided by IC50 on human amylin receptor (SPA competition)
T2 construct: whole, on cells; membranes of stably transfected BHK cells (Assay VII); also called hCTR; hCT
T2 sequence (looked up): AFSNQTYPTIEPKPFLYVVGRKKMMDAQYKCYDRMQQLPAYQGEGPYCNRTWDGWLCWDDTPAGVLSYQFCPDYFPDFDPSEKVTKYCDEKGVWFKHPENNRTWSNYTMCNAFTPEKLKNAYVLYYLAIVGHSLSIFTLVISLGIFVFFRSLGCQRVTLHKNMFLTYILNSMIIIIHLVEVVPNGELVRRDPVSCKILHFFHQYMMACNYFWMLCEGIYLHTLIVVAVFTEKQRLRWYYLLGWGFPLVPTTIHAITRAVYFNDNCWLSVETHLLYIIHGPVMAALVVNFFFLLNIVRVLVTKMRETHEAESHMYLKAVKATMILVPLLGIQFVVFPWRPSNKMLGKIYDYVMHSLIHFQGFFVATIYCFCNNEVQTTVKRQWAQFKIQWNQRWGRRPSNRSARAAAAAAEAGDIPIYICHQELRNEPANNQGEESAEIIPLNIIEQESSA
Protocol: The resulting pellet was resuspended, homogenized and centrifuged (20.000 rpm, 15 min) in a buffer containing 20 mM Na-HEPES and 0.1 mM EDTA (pH 7.4, buffer 2). The resulting pellet was resuspended in buffer 2 and protein concentration was measured (BCA protein Assay, Pierce). The homogenate was kept cold during the whole procedure. The membranes were kept at −80° C. until use. The assay was performed in a 384 well Optiplate (PerkinElmer) in a total volume of 40 ul. Membranes were mixed with SPA beads. Final concentration of membranes 35 ng/μL final and SPA beads was 0.05 mg/well. Test-compounds were dissolved in DMSO and further diluted in assay buffer (50 mM Hepes, pH 7.4, 1 mM CaCl2, 5 mM MgCl₂, 0.1% OA and 0.02% Tween20). […] The final mixture was incubated with shaking at 400 rpm for 120 min at 25° C. prior to centrifugation (1500 rpm, 10 min). Samples were analyzed on TopCounter™ (Packard). The IC₅₀ was calculated using (one site binding competition analysis) GraphPad Prism5 as a measure of receptor affinity.
Membranes were prepared in the following way; the cells were rinsed with PBS and incubated with Versene for approximately 5 min before harvesting. The cells were flushed with PBS and the cell-suspension was centrifuged for 5 min at 1000 rpm. Cells were homogenized (Ultrathurrax) in a buffer containing 20 mM Na-HEPES and 10 mM EDTA (pH 7.4) and centrifuged at 20.000 rpm for 15 min. The resulting pellet was resuspended, homogenized and centrifuged (20.000 rpm, 15 min) in a buffer containing 20 mM Na-HEPES and 0.1 mM EDTA (pH 7.4, buffer 2). The resulting pellet was resuspended in buffer 2 and protein concentration was measured (BCA protein Assay, Pierce). The homogenate was kept cold during the whole procedure. The membranes were kept at −80° C. until use. Assay was performed in a 384 well Optiplate (PerkinElmer) in a total volume of 40 ul. Membranes were mixed with SPA beads.

[3] = molecular target: T1, rat calcitonin receptor; experiment: SPA competition with 125I-calcitonin, membranes of BHK cells with rat calcitonin receptor (Assay VIII)
[4] = molecular target: T3, rat amylin receptor (rat calcitonin receptor + rat RAMP 3) (rat, UniProt P32214 25-516; Q9JJ73 23-147); experiment: SPA competition with 125I-rat amylin, membranes of BHK cells with rat calcitonin receptor + rat RAMP3 (Assay VI)
T3 construct: whole, on cells; membranes of transiently transfected BHK tk'ts 13 cells (Assay VI); also called rAmylin-R; rat amylin 3(a) receptor
T3 sequence (looked up) 1: T1 sequence (looked up)
T3 sequence (looked up) 2: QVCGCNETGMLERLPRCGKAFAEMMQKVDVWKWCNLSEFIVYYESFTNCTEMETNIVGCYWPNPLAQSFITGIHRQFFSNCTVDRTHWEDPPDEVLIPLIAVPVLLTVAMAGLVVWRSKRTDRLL

Ratio rCT/rAmylin binding [1]: 44.9
Ratio hCT/hAmylin binding [2]: 20.5
IC50 [3]: 54.9 nM
IC50 [4]: 1.22 nM
B1: N^α1-[(4S)-4-carboxy-4-(19-carboxynonadecanoylamino)butanoyl]-[Arg17,Pro21,Pro27,Pro31,Glu35]-h-amylin (peptide)
peptide: {C20 diacid-γGlu}-KCNTATCATQRLANFLRHSSPNFGAIPSSTPVGSETY-NH2
modifications: disulfide 2-7 (inferred)
notes: analogue of human amylin; also called compound 28

Ratio rCT/rAmylin binding [1]: 36.1
Ratio hCT/hAmylin binding [2]: 23.6
IC50 [3]: 114 nM
IC50 [4]: 3.14 nM
B2: N^α1-[(4S)-4-carboxy-4-(19-carboxynonadecanoylamino)butanoyl]-[His14,Arg17,Pro21,Pro27,Glu35]-h-amylin (peptide)
peptide: {C20 diacid-γGlu}-KCNTATCATQRLAHFLRHSSPNFGAIPSSTNVGSETY-NH2
modifications: disulfide 2-7 (inferred)
notes: analogue of human amylin; also called compound 30

Ratio rCT/rAmylin binding [1]: 34
Ratio hCT/hAmylin binding [2]: 10.9
IC50 [3]: 5.98 nM
IC50 [4]: 0.176 nM
B3: N^α1-[(4S)-4-carboxy-4-(19-carboxynonadecanoylamino)butanoyl]-[Glu14,Arg17,Pro21,Pro27,Pro34]-h-amylin (peptide)
peptide: {C20 diacid-γGlu}-KCNTATCATQRLAEFLRHSSPNFGAIPSSTNVGPNTY-NH2
modifications: disulfide 2-7 (inferred)
notes: analogue of human amylin; also called compound 32

Ratio rCT/rAmylin binding [1]: 119
Ratio hCT/hAmylin binding [2]: 37.5
IC50 [3]: 62 nM
IC50 [4]: 0.523 nM
B4: N^ε1-[(4S)-4-carboxy-4-(19-carboxynonadecanoylamino)butanoyl]-[Glu14,Arg17,Pro21,Pro27,Arg35]-h-amylin (peptide)
peptide: K([γGlu-C20 diacid])CNTATCATQRLAEFLRHSSPNFGAIPSSTNVGSRTY-NH2
modifications: disulfide 2-7 (inferred)
notes: analogue of human amylin; also called compound 51

Ratio rCT/rAmylin binding [1]: 309
Ratio hCT/hAmylin binding [2]: 47.5
IC50 [3]: 152 nM
IC50 [4]: 0.491 nM
B5: N^ε1-[2-[2-[2-[[(4S)-4-carboxy-4-(19-carboxynonadecanoylamino)butanoyl]amino]ethoxy]ethoxy]acetyl]-[Arg17,Pro21,Pro27,Glu35]-h-amylin (peptide)
peptide: K([AEEA-γGlu-C20 diacid])CNTATCATQRLANFLRHSSPNFGAIPSSTNVGSETY-NH2
modifications: disulfide 2-7 (inferred)
notes: analogue of human amylin; also called compound 26

Ratio rCT/rAmylin binding [1]: 42.8
Ratio hCT/hAmylin binding [2]: 16
IC50 [3]: 26.5 nM
IC50 [4]: 0.619 nM
B6: N^α1-[(4S)-4-carboxy-4-(19-carboxynonadecanoylamino)butanoyl]-[Glu14,Arg17,Pro21,Pro27,Pro31]-h-amylin (peptide)
peptide: {C20 diacid-γGlu}-KCNTATCATQRLAEFLRHSSPNFGAIPSSTPVGSNTY-NH2
modifications: disulfide 2-7 (inferred)
notes: analogue of human amylin; also called compound 31

Ratio rCT/rAmylin binding [1]: 47.7
Ratio hCT/hAmylin binding [2]: 10.8
IC50 [3]: 51.4 nM
IC50 [4]: 1.08 nM
B7: N^ε1-[2-[2-[2-[[(4S)-4-carboxy-4-(19-carboxynonadecanoylamino)butanoyl]amino]ethoxy]ethoxy]acetyl]-[Arg17,Pro21,Pro27,Pro31]-h-amylin (peptide)
peptide: K([AEEA-γGlu-C20 diacid])CNTATCATQRLANFLRHSSPNFGAIPSSTPVGSNTY-NH2
modifications: disulfide 2-7 (inferred)
notes: analogue of human amylin; also called compound 49

Ratio rCT/rAmylin binding [1]: 147
Ratio hCT/hAmylin binding [2]: 41.3
IC50 [3]: 90.2 nM
IC50 [4]: 0.614 nM
B8: N^ε1-[(4S)-4-carboxy-4-(19-carboxynonadecanoylamino)butanoyl]-[Arg17,Pro21,Pro27,Glu35]-h-amylin (peptide)
peptide: K([γGlu-C20 diacid])CNTATCATQRLANFLRHSSPNFGAIPSSTNVGSETY-NH2
modifications: disulfide 2-7; N-terminus assumed
SMILES: CC[C@H](C)[C@H](NC(=O)[C@H](C)NC(=O)CNC(=O)[C@H](Cc1ccccc1)NC(=O)[C@H](CC(N)=O)NC(=O)[C@@H]1CCCN1C(=O)[C@H](CO)NC(=O)[C@H](CO)NC(=O)[C@H](Cc1c[nH]cn1)NC(=O)[C@H](CCCNC(=N)N)NC(=O)[C@H](CC(C)C)NC(=O)[C@H](Cc1ccccc1)NC(=O)[C@H](CC(N)=O)NC(=O)[C@H](C)NC(=O)[C@H](CC(C)C)NC(=O)[C@H](CCCNC(=N)N)NC(=O)[C@H](CCC(N)=O)NC(=O)[C@@H](NC(=O)[C@H](C)NC(=O)[C@@H]1CSSC[C@H](NC(=O)[C@@H](N)CCCCNC(=O)CC[C@H](NC(=O)CCCCCCCCCCCCCCCCCCC(=O)O)C(=O)O)C(=O)N[C@@H](CC(N)=O)C(=O)N[C@@H]([C@@H](C)O)C(=O)N[C@@H](C)C(=O)N[C@@H]([C@@H](C)O)C(=O)N1)[C@@H](C)O)C(=O)N1CCC[C@H]1C(=O)N[C@@H](CO)C(=O)N[C@@H](CO)C(=O)N[C@H](C(=O)N[C@@H](CC(N)=O)C(=O)N[C@H](C(=O)NCC(=O)N[C@@H](CO)C(=O)N[C@@H](CCC(=O)O)C(=O)N[C@H](C(=O)N[C@@H](Cc1ccc(O)cc1)C(N)=O)[C@@H](C)O)C(C)C)[C@@H](C)O
notes: analogue of human amylin; also called compound 27

— US20140087995A1 (published 2014)
